# Measurements published in patent US20170101464A1.
# Molecular target: hTEM8-AP (UniProt Q9H6X2)
# Experiment: Biacore affinity measurement, Fab
# Sequence of UniProt Q9H6X2 (Q9H6X2 33-321): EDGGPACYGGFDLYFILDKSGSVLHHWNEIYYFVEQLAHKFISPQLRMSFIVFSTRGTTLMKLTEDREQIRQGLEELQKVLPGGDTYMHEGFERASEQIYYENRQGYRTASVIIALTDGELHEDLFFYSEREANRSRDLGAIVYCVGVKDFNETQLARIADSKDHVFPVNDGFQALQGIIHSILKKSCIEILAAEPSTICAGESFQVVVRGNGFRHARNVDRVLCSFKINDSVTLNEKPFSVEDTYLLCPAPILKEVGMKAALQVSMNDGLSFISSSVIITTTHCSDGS
binder,measurement,value
"M825 anti-TEM8 Fab (Fab, V domains shown) VH: QVQLVQSGAEVKKPGTSVKVSCKVPGYTFSSYAISWVRQAPGQGLEWMGGIIPIFGTTNYAQKFQGRVTITGEESTSTVYMELSSLRSEDTAVYYCARDTDYMFDYWGQGTLVTVSS VL: SSELTQDPVVSVALGETVSITCQGDNLRDFYASWYQQKPGQAPLLVMYGKNRRPSGIPDRFSGSTSGNTLSLTITGAQAEDEADYYCSSRDNSKHVVFGGGTKVTVL",Kd,0.0591 nM
same,koff,0.00018 s⁻¹
same,kon,3.05e+06 M⁻¹ s⁻¹
